Data: patent US20070231333A1, “ANTI-5T4 ANTIBODIES AND USES THEREOF” (Wyeth, priority 2006, published 2007)

Tests used:
[1] = system: human/mouse 282-361 5T4 chimera (with or without N-link at position 344); experiment: Epitope mapping ELISA, human/mouse 5T4 chimeras; assay type: binding; set-up: key: +: binding; −: no binding; +/−: partial binding; conditions: human/mouse 282-361 (with or without N-link at position 344)
Protocol: (§1) To identify the epitopes to which each of the A1, A2, A3, and H8 antibodies bind, ELISA assays were performed using (1) 5T4 ectodomain Fc constructs with deleted or mutated sequences, and (2) 5T4 chimera constructs transiently expressed in COS-1 cells. The ectodomain includes the amino-terminal region, two leucine-rich repeats, and the intervening hydrophilic region. Fusion proteins containing a 5T4 ectodomain and a Fc constant regions from human IgG1 were prepared using mouse 5T4 (amino acids 1-361), rat 5T4 (amino acids 1-361), cynomologous monkey 5T4 (amino acids 1-355), chimpanzee 5T4 (amino acids 1-355), and black-tailed marmoset (amino acids 1-355). The 5T4 chimera constructs are depicted in FIG. 5. The binding results are summarized in Table 5, which indicates specific binding, partial binding, or lack of binding, by each of the H8, A1, A2, and A3 antibodies.

[2] = system: human/mouse 83-163 5T4 chimera; experiment: Epitope mapping ELISA, human/mouse 5T4 chimeras; assay type: binding; set-up: key: +: binding; −: no binding; +/−: partial binding
Protocol: as §1

[3] = biological target: T1, human/mouse 173-361 5T4 chimera (Homo sapiens, UniProt Q13641, A205S/A340S/D319A/E189Q/E336D/G276S/G317D/H238Y/H301Y/I287V/I347V/INS199AFEGMV/L204R/L281W/P285A/P346A/P350Q/Q210R/Q282H/Q316P/R193G/R207L/R213T/R288K/S242R/T307A/V176E/V200A/V229L/V252A/V333G/Y224F/Y325F); experiment: Epitope mapping ELISA, human/mouse 5T4 chimeras; assay type: binding; set-up: key: +: binding; −: no binding; +/−: partial binding
T1 construct: made in house; host or cells: COS-1 cells (transient)
T1 sequence (Q13641 with tags, fused parts or gaps V176E/E189Q/R193G/INS199AFEGMV/V200A/L204R/A205S/R207L/Q210R/R213T/Y224F/V229L/H238Y/S242R/V252A/G276S/L281W/Q282H/P285A/I287V/R288K/H301Y/T307A/Q316P/G317D/D319A/Y325F/V333G/E336D/A340S/P346A/I347V/P350Q limits assumed): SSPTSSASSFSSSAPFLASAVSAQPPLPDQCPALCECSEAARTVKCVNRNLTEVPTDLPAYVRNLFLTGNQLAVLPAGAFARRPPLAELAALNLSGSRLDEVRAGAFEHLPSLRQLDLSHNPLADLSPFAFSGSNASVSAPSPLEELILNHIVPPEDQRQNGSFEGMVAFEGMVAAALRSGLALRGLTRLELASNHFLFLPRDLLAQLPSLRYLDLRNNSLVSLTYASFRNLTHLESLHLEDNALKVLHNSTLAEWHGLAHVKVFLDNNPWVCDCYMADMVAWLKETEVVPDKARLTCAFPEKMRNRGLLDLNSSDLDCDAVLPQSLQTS
Protocol: as §1

[4] = system: human/mouse 173-258 5T4 chimera; experiment: Epitope mapping ELISA, human/mouse 5T4 chimeras; assay type: binding; set-up: key: +: binding; −: no binding; +/−: partial binding
Protocol: as §1

human 5T4 antigen = biological target: T2, human 5T4 antigen (Homo sapiens, UniProt Q13641); experiment: BIACORE competition assay: second antibody after saturation with first antibody; assay type: binding
T2 sequence (Q13641 32-420): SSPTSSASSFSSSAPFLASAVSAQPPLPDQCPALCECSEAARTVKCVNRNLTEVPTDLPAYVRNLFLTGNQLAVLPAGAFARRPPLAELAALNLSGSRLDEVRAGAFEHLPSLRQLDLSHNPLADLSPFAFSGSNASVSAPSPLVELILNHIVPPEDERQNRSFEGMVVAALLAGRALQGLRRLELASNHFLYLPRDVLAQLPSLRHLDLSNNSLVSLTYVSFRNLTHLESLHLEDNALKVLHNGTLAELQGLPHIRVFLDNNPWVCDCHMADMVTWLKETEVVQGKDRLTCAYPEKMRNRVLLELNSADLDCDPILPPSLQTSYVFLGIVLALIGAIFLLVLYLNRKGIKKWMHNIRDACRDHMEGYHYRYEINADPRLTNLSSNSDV
Protocol: Epitope mapping of the H8, A1, A2, and A3 antibodies was also performed using BIACORE® using a CM5 chip with bound human 5T4 antigen. The chip was saturated with H8, A1, A2, or A3 antibody, and a first response was measured. The chip was then saturated with a second antibody from among the H8, A1, A2, and A3 antibodies, and a second response was measured. For multiple experiments, the chip was regenerated by dissociation of the bound antibodies in 10 mM glycine, pH 1.5, followed by a buffer wash. The percentages shown are the response units measured upon binding by a second antibody directly to the CM5 chip divided by the response units measured upon binding of the second antibody to a CM5 chip saturated with a first antibody.
The epitopes bound by the H8 and A3 antibodies are sterically close to each other such that the rate of association with antigen is decreased when binding of H8 is assayed in the presence of A3, and vice versa. Similar results were obtained using the chimeric and humanized H8, A1, A2, and A3 antibodies, which were prepared as described in Example 7 herein below.

MDAMB435/5T4 cells = experiment: Modulation/internalization of antibodies by MDAMB435/5T4 cells (FACS); assay type: cell-based, human; conditions: 37° C., 4 or 24 hours, 4C
Protocol: FIGS. 4A-4C are line graphs that show modulation of H8, A1, A2, and A3 antibodies by MDAMB435/5T4 cells. […] MCF, mean cellular fluorescence; supt, supernatant.
To assess internalization of antibodies upon binding to 5T4 antigen, the amount of H8 and A1 antibodies detected at the cell surface versus in the supernatant was determined as a function of time. Non-enzymatically dissociated MDAMB435/5T4 cells (human breast cancer cells) were exposed to anti-5T4 antibodies for 1 hour at 4° C. Cells were washed and incubated in media at 37° C. for 4 hours or 24 hours. The amount of antibody bound to cellular membranes versus unbound antibody (i.e., presence in the supernatant) was determined using FACS.

B1: A2: murine anti-5T4 monoclonal antibody (IgG2b heavy chain); VH residues 19-135 of SEQ ID NO:6, VL residues 23-130 of SEQ ID NO:8 (antibody, listed as Mus musculus, V domains shown)
VH: MEWRIFLFILSGTAGVHSQVQLQQSRPELVKPGASVKMSCKASGYTFTDYVISWVKQRTGQGLEWIGEIYPGSNSIYYNEKFKGRATLTADKSSSTAYMQLSSLTSEDSAVYFCAMGGNYGFDYWGQGTTLTVSS
VL: MDFQVQIFSFLLISASVIMSRGQIVLTQSPAIMSASLGERVTLTCTASSSVNSNYLHWYQQKPGSSPKLWIYSTSNLASGVPARFSGSGSGTSYSLTISSMEAEDAATYYCHQYHRSPLTFGAGTKLELK
modifications: (1)..(18) leader sequence; (19)..(135) heavy chain variable region; (44)..(53) CDR1; (68)..(84) CDR2; (117)..(124) CDR3; (1)..(22) leader sequence; (23)..(130) light chain variable region; (46)..(56) CDR1; (73)..(79) CDR2; (112)..(120) CDR3
binding to 5T4 antigen construct [1]: −
binding to 5T4 antigen construct [2]: +
binding to 5T4 antigen construct [3]: −
binding to 5T4 antigen construct [4]: +
Percentage Response of Second Antibody Following Saturation With First Antibody (human 5T4 antigen; 1st antibody A1): 98%
Percentage Response of Second Antibody Following Saturation With First Antibody (human 5T4 antigen; 1st antibody A3): 94%
levels of antibody at the cell surface (MDAMB435/5T4 cells; FIGS. 4A): decline over time
levels of antibody in the supernatant (MDAMB435/5T4 cells; FIGS. 4B): remain constant
